Laboratory results from the supplement of paper PMC9732359.
± gives the uncertainty stated by the source.

Test: protein stability index of a GFP-peptide fusion (yeast GPS) (PSI 1-4); higher = more stable; sorted into four equal gates, so the index is relative within each strain
Method in brief: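 Tiled yeast protein peptides of 17 residues were each joined downstream of GFP, on plasmids that also express Cherry. The pooled library was maintained in yeast, and mid-log cultures in leucine-free medium were sorted into four equal gates on the GFP/Cherry ratio. Plasmids from every gate were amplified by PCR and sequenced on Illumina, with barcodes linking reads to strains. The protein stability index of a peptide is its gate-number-weighted read frequency summed over the gates.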

Sequence	protein stability index (doa10∆)	protein stability index (pdr5∆)	protein stability index (san1∆)	protein stability index (ubr1∆)
QKSTELLIRKLPFQRLV [HHT1]	1.26 ± 0.14	1.12 ± 0.17	1.17 ± 0.21	1.3 ± 0.16
QLAIRNDDELNKLLGNV [HTA1]	3.31 ± 0.14	3.38 ± 0.071	3.23 ± 0.064	3.43 ± 0.078
QLDKKNELQKFQALWQL [SMC1]	–	–	2.58 ± 0.1	–
QLFHNLISIHSRENNSE [YJL039C/NUP192]	2.6 ± 0.079	2.61 ± 0.076	2.3 ± 0.11	2.88 ± 0.091
QLGYGKFLILNENPINK [NUT1]	2.92 ± 0.12	2.53 ± 0.12	2.71 ± 0.077	2.84 ± 0.13
QLKRWYWQFNGVIALGQ [RMP1]	–	–	–	1.41 ± 0.22
QLLDTSNQRFKDLQWLE [SIN4]	3.02 ± 0.066	2.96 ± 0.076	2.88 ± 0.06	2.91 ± 0.043
QLLGDVMTYKGEVLGIT [RPO31]	3.28 ± 0.11	3.43 ± 0.069	3.24 ± 0.14	3.33 ± 0.075
QLLKEDSEKRNKYAAML [RRP45]	3.13 ± 0.11	2.81 ± 0.089	2.75 ± 0.18	2.97 ± 0.05
QLLLLSDERAKLELINR [LRP1]	2.93 ± 0.092	3.06 ± 0.18	2.99 ± 0.11	2.99 ± 0.18
QLLQRIPNIPPNINTWQ [GAL11]	2.55 ± 0.048	2.72 ± 0.049	1.96 ± 0.059	2.62 ± 0.044
QLPANMVHLYSIVEECD [RPC17]	1.99 ± 0.044	1.98 ± 0.045	1.86 ± 0.065	2.02 ± 0.04
QLPKQLWRNFCRKLSFS [ITC1]	2.67 ± 0.059	2.66 ± 0.05	2.6 ± 0.039	2.66 ± 0.034
QLTVCGAIIGWTRGTGL [FAS2]	1.26 ± 0.079	1.18 ± 0.067	1.09 ± 0.23	1.3 ± 0.085
QLYESGNPVNDANLLGA [COR1]	2.53 ± 0.059	2.65 ± 0.057	2.42 ± 0.069	2.81 ± 0.044
QLYKARMSIKLLRLASK [POP1]	1.54 ± 0.064	1.39 ± 0.072	1.4 ± 0.11	1.14 ± 0.048
QMAKDVTTFLNWCAEPE [CYT1]	3.4 ± 0.068	3.25 ± 0.067	3.04 ± 0.098	3.46 ± 0.073
QMIDTSILPTRDDLFVR [NUT1]	2.86 ± 0.06	2.88 ± 0.062	2.73 ± 0.08	2.33 ± 0.044
QNDQWSIQMEFMLRKQD [SSN2]	2.53 ± 0.071	2.58 ± 0.088	2.4 ± 0.12	2.81 ± 0.074
QNNSKHTEDTVNESRNS [SRB5]	–	2.73 ± 0.1	2.95 ± 0.09	2.98 ± 0.11
QNSDASTLEPTLRKELE [YIL149C/MLP2]	2.59 ± 0.09	1.68 ± 0.091	2.55 ± 0.069	3.12 ± 0.077
